To fix the notation:
B1: MIA2 (parent)
chain: DMVSNIELPTRIHEEVYFEPSSSK
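Further: lentivirally expressed fusions sorted by FACS into six bins by GFP to DsRed ratio, PSI derived from sequencing read proportions per bin multiplied by bin number.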

Variants of B1 are the subject of this data set. Kind of data set: protein stability index of a GFP-peptide fusion (GPS, HEK-293T) (PSI 1-6); higher = more stable. As to conditions: c terminus: a fixed tail appended.
With SMVSNIELPTRIHEEVYFEPSSSK [D1S], the protein stability index turned out to be 3.5.

Regarding DMVSNIELPTRIHEEVYFEPSSVK [S23V], the protein stability index is 3.82.

DMVSNIELPTRIHEEVYFEPSSFK [S23F]: the protein stability index was found to be 3.11.

With DMVSNIELPTRIHEEVYFEPSSPK [S23P], the protein stability index stood at 3.67.

For DMVSNIELPTRIHEEVYFEPSSLK [S23L], the protein stability index is 3.49.

For DMVSNIELPTRIHEEKYFEPSSSK [V16K], the protein stability index was found to be 3.89.

Consider DMVSNIELPTRIHEENYFEPSSSK [V16N], for which the protein stability index worked out at 4.47.

In the case of DMVSNIELPTRIHEETYFEPSSSK [V16T], the protein stability index amounted to 4.05.

For DMVSNIELPTRIHEEMYFEPSSSK [V16M], the protein stability index was 3.46.

Consider DMVSNIELPTRIHEEPYFEPSSSK [V16P], for which the protein stability index came out at 4.12.

For the variant DMVSNIELPTRIHEEAYFEPSSSK [V16A], the protein stability index is 4.26.

For the variant DMVSNIELPTRNHEEVYFEPSSSK [I12N], the protein stability index was 3.69.

With DMVSNIELPTRCHEEVYFEPSSSK [I12C], the protein stability index worked out at 3.22.

As for DMVSNIELPTRPHEEVYFEPSSSK [I12P], the protein stability index worked out at 3.86.

On to DMVSNIELPTTIHEEVYFEPSSSK [R11T], for which the protein stability index turned out to be 4.27.

As for DMVSNIELPTIIHEEVYFEPSSSK [R11I], the protein stability index was 3.58.

As for DMVSNIELPTKIHEEVYFEPSSSK [R11K], the protein stability index was 3.77.

Turning to DMVSNIELPTNIHEEVYFEPSSSK [R11N], the protein stability index is 4.39.

On to DMVSNIELPTSIHEEVYFEPSSSK [R11S], for which the protein stability index was 4.07.

As to DMVSNIELPTEIHEEVYFEPSSSK [R11E], the protein stability index is 4.5.

On to DMVSNIELPTMIHEEVYFEPSSSK [R11M], for which the protein stability index came to 4.16.

In the case of DMVSNIFLPTRIHEEVYFEPSSSK [E7F], the protein stability index amounted to 3.59.

With DMVSNIWLPTRIHEEVYFEPSSSK [E7W], the protein stability index was determined as 2.64.

With DMVSNIHLPTRIHEEVYFEPSSSK [E7H], the protein stability index turned out to be 3.98.

DMVSNIELPTRIHEEVYFEPSRSK [S22R]: the protein stability index was determined as 3.73.

For the variant DMVSNIELPTRIHEEVYFEPSYSK [S22Y], the protein stability index was found to be 3.08.

Regarding DMVSNIELPTRIHEEVYFEPSDSK [S22D], the protein stability index turned out to be 4.25.

For the variant DMVSNIELPTRIHEEVYFEPSWSK [S22W], the protein stability index was 3.17.

On to DMVSNIELPTRIHEEVYFEPSCSK [S22C], for which the protein stability index was 3.89.

In the case of DMQSNIELPTRIHEEVYFEPSSSK [V3Q], the protein stability index worked out at 4.02.

For the variant DMKSNIELPTRIHEEVYFEPSSSK [V3K], the protein stability index was 4.02.

DMVSNIELPDRIHEEVYFEPSSSK [T10D]: the protein stability index was determined as 4.74.

Consider DMVSNIELPLRIHEEVYFEPSSSK [T10L], for which the protein stability index came out at 4.11.

For DMVSNIELPSRIHEEVYFEPSSSK [T10S], the protein stability index was determined as 4.13.

Turning to DMVSNIELPGRIHEEVYFEPSSSK [T10G], the protein stability index came to 3.83.

In the case of DMVSNIELPRRIHEEVYFEPSSSK [T10R], the protein stability index came out at 3.63.

With DMVSNIEDPTRIHEEVYFEPSSSK [L8D], the protein stability index was 4.54.

As for DMVSNIEIPTRIHEEVYFEPSSSK [L8I], the protein stability index was 4.04.

On to DMVSNIEVPTRIHEEVYFEPSSSK [L8V], for which the protein stability index stood at 4.13.

As for DMVSNNELPTRIHEEVYFEPSSSK [I6N], the protein stability index turned out to be 4.77.

In the case of DMVSNGELPTRIHEEVYFEPSSSK [I6G], the protein stability index came out at 4.52.

As for DMVSNDELPTRIHEEVYFEPSSSK [I6D], the protein stability index was 4.86.

For DMVSNCELPTRIHEEVYFEPSSSK [I6C], the protein stability index stood at 4.91.

On to DMVSNRELPTRIHEEVYFEPSSSK [I6R], for which the protein stability index was determined as 3.84.

Take DMVSNTELPTRIHEEVYFEPSSSK [I6T]: the protein stability index was determined as 4.48.

For DMVSNIELPTRIHEEVYFEPRSSK [S21R], the protein stability index was 3.13.

For the variant DMVSNIELPTRIHEEVYFEPASSK [S21A], the protein stability index is 3.71.

For the variant DMVSNIELPTRIHEEVYFEPWSSK [S21W], the protein stability index is 3.38.

For DMVPNIELPTRIHEEVYFEPSSSK [S4P], the protein stability index was found to be 4.34.

Take DMVNNIELPTRIHEEVYFEPSSSK [S4N]: the protein stability index turned out to be 4.03.

Consider DMVFNIELPTRIHEEVYFEPSSSK [S4F], for which the protein stability index came out at 2.35.

On to DMVMNIELPTRIHEEVYFEPSSSK [S4M], for which the protein stability index worked out at 3.51.

In the case of DMVSNIELPTRIHEEVYAEPSSSK [F18A], the protein stability index is 4.12.

Take DMVSNIELPTRIHEEVYMEPSSSK [F18M]: the protein stability index was found to be 4.48.

For the variant DMVSNIELPTRIHEEVYEEPSSSK [F18E], the protein stability index came out at 4.68.

On to DMVSNIELPTRIHEEVYTEPSSSK [F18T], for which the protein stability index came to 4.63.

For DMVSNIELPTRIHEEVYHEPSSSK [F18H], the protein stability index came to 4.64.

Take DMVSNIELPTRIHEEVYIEPSSSK [F18I]: the protein stability index came out at 4.52.

Regarding DMVSNIELPTRIHEEVYREPSSSK [F18R], the protein stability index amounted to 4.28.

On to DMVSNIELPTRIHEEVHFEPSSSK [Y17H], for which the protein stability index stood at 4.29.

Turning to DMVSNIELPTRIHEEVQFEPSSSK [Y17Q], the protein stability index amounted to 4.26.

For DMVSNIELPTRIHEEVFFEPSSSK [Y17F], the protein stability index amounted to 4.35.

As for DMVSNIELPTRIREEVYFEPSSSK [H13R], the protein stability index worked out at 3.8.

On to DMVSNIELPTRIKEEVYFEPSSSK [H13K], for which the protein stability index came to 3.64.

Turning to DMVSNIELPTRIEEEVYFEPSSSK [H13E], the protein stability index was 4.44.

In the case of DMVSNIELPTRIHEEVYFRPSSSK [E19R], the protein stability index stood at 3.29.

With DMVSNIELPTRIHEEVYFFPSSSK [E19F], the protein stability index came out at 2.86.

DMVSNIELPTRIHEEVYFAPSSSK [E19A]: the protein stability index is 3.53.

On to DMVSNIELPTRIHFEVYFEPSSSK [E14F], for which the protein stability index stood at 2.46.

Regarding DMVSNIELPTRIHLEVYFEPSSSK [E14L], the protein stability index was 2.04.

With DNVSNIELPTRIHEEVYFEPSSSK [M2N], the protein stability index is 5.1.

As to DPVSNIELPTRIHEEVYFEPSSSK [M2P], the protein stability index came to 5.15.

Regarding DIVSNIELPTRIHEEVYFEPSSSK [M2I], the protein stability index was 3.62.

Turning to DDVSNIELPTRIHEEVYFEPSSSK [M2D], the protein stability index is 5.43.

Take DTVSNIELPTRIHEEVYFEPSSSK [M2T]: the protein stability index is 5.12.

In the case of DRVSNIELPTRIHEEVYFEPSSSK [M2R], the protein stability index turned out to be 4.18.

As to DMVSNIELPTRIHEEVYFEESSSK [P20E], the protein stability index came to 4.28.

For DMVSNIELPTRIHEEVYFEASSSK [P20A], the protein stability index is 3.69.

With DMVSNIELPTRIHEEVYFECSSSK [P20C], the protein stability index came out at 3.42.

Take DMVSNIELPTRIHEEVYFERSSSK [P20R]: the protein stability index was determined as 4.18.

Turning to DMVSNIELPTRIHEEVYFEISSSK [P20I], the protein stability index worked out at 3.02.

With DMVSNIELPTRIHEEVYFEPSSSL [K24L], the protein stability index was determined as 3.84.

Regarding DMVSNIELPTRIHEEVYFEPSSSI [K24I], the protein stability index worked out at 2.98.

Consider DMVSNIELPTRIHEEVYFEPSSSQ [K24Q], for which the protein stability index was found to be 4.89.

As to DMVSNIELPTRIHEEVYFEPSSSF [K24F], the protein stability index was 3.28.

Consider DMVSNIELPTRIHEVVYFEPSSSK [E15V], for which the protein stability index came out at 2.6.

For the variant DMVSNIELPTRIHEKVYFEPSSSK [E15K], the protein stability index was 3.52.

Consider DMVSNIELPTRIHELVYFEPSSSK [E15L], for which the protein stability index turned out to be 3.27.

Turning to DMVSMIELPTRIHEEVYFEPSSSK [N5M], the protein stability index was 3.99.

Turning to DMVSAIELPTRIHEEVYFEPSSSK [N5A], the protein stability index amounted to 4.14.

Regarding DMVSDIELPTRIHEEVYFEPSSSK [N5D], the protein stability index was 4.56.

For DMVSSIELPTRIHEEVYFEPSSSK [N5S], the protein stability index came to 4.46.

On to DMVSFIELPTRIHEEVYFEPSSSK [N5F], for which the protein stability index was 3.95.

Take DMVSTIELPTRIHEEVYFEPSSSK [N5T]: the protein stability index turned out to be 4.47.

(Values after the supplement of paper PMC10567573.)
